Measured values: patent US7252824B2, “Anti-neovasculature preparations for cancer” (Mannkind Corporation, priority 2001, dated 2007)

Columns and labels:
HLA-A1+ CD8+ T cells = assay: gamma-IFN-based ELISPOT assay; format: cell-based, human; settings: IFN production blocked by anti-HLA-A1 monoclonal antibody
Method: The wells of a nitrocellulose-backed microtiter plate were coated with capture antibody by incubating overnight at 4° C. using 50 μl/well of 4 μg/ml murine anti-human −IFN monoclonal antibody in coating buffer (35 mM sodium bicarbonate, 15 mM sodium carbonate, pH 9.5). Unbound antibody was removed by washing 4 times 5 min. with PBS. Unbound sites on the membrane then were blocked by adding 200 μl/well of RPMI medium with 10% serum and incubating 1 hr. at room temperature. Antigen stimulated CD8^+ T cells, in 1:3 serial dilutions, were seeded into the wells of the microtiter plate using 100 μl/well, starting at 2×10^5 cells/well. […] Following this incubation the plates were washed with 6 times 200 μl/well of PBS containing 0.05% Tween-20 (PBS-Tween). Detection antibody, 50 μl/well of 2 μg/ml biotinylated murine anti-human −IFN monoclonal antibody in PBS+10% fetal calf serum, was added and the plate incubated at room temperature for 2 hrs. Unbound detection antibody was removed by washing with 4 times 200 μl of PBS-Tween. 100 μl of avidin-conjugated horseradish peroxidase (Pharmingen, San Diego, Calif.) was added to each well and incubated at room temperature for 1 hr. Unbound enzyme was removed by washing with 6 times 200 μl of PBS-Tween. […] The plate was air dried and the spots counted using a stereomicroscope.
No reactivity is detected from cultures without peptide (data not shown).

HLA-A2.1 = HLA-A2.1 (Homo sapiens, UniProt P04439, D140Y/D185E/D98H/E176V/E277Q/G131W/G231S/I119V/I121R/I166T/I218V/L300P/L318F/N151K/N90K/P208A/P217A/Q86G/Q94H/R138H/R169H/T345S); assay: HLA-A*0201 binding assay (stabilization of surface HLA-A2.1 on T2 cells, flow cytometry); settings: for binding to HLA-A2.1: T2 cells, peptide 6.25-800 μg/ml, compared with control peptides
peptide pulsed T2 cells = assay: Epitope specific lysis by CTL from peptide-immunized HHD-A2 mice; format: in vivo; settings: HHD-A2 mice immunized with peptide in complete Freund's adjuvants, spleen cells re-stimulated in vitro; HLA-A2+ T2 targets
From the text: HHD-A2 mice were immunized with ED-B29-38 (SEQ ID NO. 103) in complete Freund's adjuvants and spleen cells were harvested and re-stimulated in vitro using standard methodology.

[1] = target: T1, HLA-A2.1 (HLA-A*0201) on T2 cells (human); assay: T2 cell HLA-A2.1 stabilisation, flow cytometry with FITC anti-HLA-A2
T1 construct: MHC class I molecule on T2 cells; also called HLA-A2+ T2 cells

| Molecule | binding to HLA-A2.1 (HLA-A2.1) | further results |
| --- | --- | --- |
| RVDCTPLMY [SEQ ID NO 35] |  | HLA restriction of the response (HLA-A1+ CD8+ T cells): HLA-A1-restricted response |
| RMMNDQLMFL (Homo sapien) [SEQ ID NO 40] | significant binding at even lower concentrations than the positive control peptide | binding activity / affinity by comparison to the controls (HLA-A2.1; not run in parallel): approaches the Melan A peptide in affinity |
| TIIGYRITVV (Homo sapien) [SEQ ID NO 103] |  | epitope specific lysis by CTL (peptide pulsed T2 cells): able to specifically lyse peptide pulsed T2 cells |
| GLPSIPVHPI (Homo sapien) [SEQ ID NO 21] | significant binding at even lower concentrations than the positive control peptides |  |
| TLRVDCTPL (Homo sapien) [SEQ ID NO 32] | binds nearly as well |  |
| GMPEGDLVYV (Homo sapien) [SEQ ID NO 6] | significant binding at even lower concentrations than the positive control peptides |  |
| MMNDQLMFL [SEQ ID NO 39] | significant binding at even lower concentrations than the positive control peptide |  |
| MMNDQLMFL [PSMA663-671] |  | binding result [1]: binds |
